The text below walks through data of paper PMC12802350, “Opposite effects of spermidine and GC7 in cell culture are dictated by distinct molecular targets” (Biochemical Journal, 2025).

Substrate in the series: NCCCCNCCCN
The series can be described thus: DCHBS/AAP peroxide-coupled kinetic assay; Km from Michaelis–Menten/inhibition fit. The class given is biochemical, Bos taurus. As to conditions: TPQ (trihydroxyphenylalanine quinone), copper.

What is called Km is the substrate concentration at which the rate is half of its maximum.

B1: bovine serum amine oxidase (BSAO) (Bos taurus) (protein)
chain: REEGGVGSEEGVGKQCHPSLPPRCPSRSPSDQPWTHPDQSQLFADLSREELTTVMSFLTQQLGPDLVDAAQARPSDNCVFSVELQLPPKAAALAHLDRGSPPPAREALAIVFFGGQPQPNVTELVVGPLPQPSYMRDVTVERHGGPLPYYRRPVLLREYLDIDQMIFNRELPQAAGVLHHCCSYKQGGQKLLTMNSAPRGVQSGDRSTWFGIYYNITKGGPYLHPVGLELLVDHKALDPADWTVQKVFFQGRYYENLAQLEEQFEAGQVNVVVIPDDGTGGFWSLKSQVPPGPTPPLQFHPQGPRFSVQGNRVASSLWTFSFGLGAFSGPRVFDVRFQGERLAYEISLQEAGAVYGGNTPAAMLTRYMDSGFGMGYFATPLIRGVDCPYLATYMDWHFVVESQTPKTLHDAFCVFEQNKGLPLRRHHSDFLSHYFGGVAQTVLVFRSVSTMLNYDYVWDMVFYPNGAIEVKLHATGYISSAFLFGAARRYGNQVGEHTLGPVHTHSAHYKVDLDVGGLENWVWAEDMAFVPTAIPWSPEHQIQRLQVTRKQLETEEQAAFPLGGASPRYLYLASKQSNKWGHPRGYRIQTVSFAGGPMPQNSPMERAFSWGRYQLAITQRKETEPSSSSVFNQNDPWTPTVDFSDFINNETIAGKDLVAWVTAGFLHIPHAEDIPNTVTVGNGVGFFLRPYNFFDQEPSMDSADSIYFREGQDAGSCEINPLACLPQAATCAPDLPVFSHGGYPEY
notes: BSAO purified from bovine blood
B1: the Km amounted to 173.8 µM.
